Assays:
[1] = target: E. coli expressed human annexin A2, P07355
[2] = target: glycosylated human annexin A2-6×His expressed in Pichia pastoris
[3] = target: non-N-glycosylated human annexin A2-6×His (N62A) group #1 expressed in Pichia pastoris
[4] = target: non-N-glycosylated human annexin A2-6×His (N62A) group #2 expressed in Pichia pastoris
non-N-glycosylated human annexin A2-6×His (N62A) group #2 expressed in Pichia pastoris, sequence (chain, as listed by the source N62A): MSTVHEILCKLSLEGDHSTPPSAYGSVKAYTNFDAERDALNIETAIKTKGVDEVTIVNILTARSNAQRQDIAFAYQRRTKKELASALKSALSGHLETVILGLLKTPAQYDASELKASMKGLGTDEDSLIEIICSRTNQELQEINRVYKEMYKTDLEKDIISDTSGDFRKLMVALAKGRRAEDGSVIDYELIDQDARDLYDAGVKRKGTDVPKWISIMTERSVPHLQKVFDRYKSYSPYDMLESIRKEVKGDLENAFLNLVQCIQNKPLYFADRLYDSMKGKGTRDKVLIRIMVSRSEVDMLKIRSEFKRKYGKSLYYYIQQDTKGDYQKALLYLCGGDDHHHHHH

E. coli expressed human annexin A2, P07355, sequence (P07355 whole entry): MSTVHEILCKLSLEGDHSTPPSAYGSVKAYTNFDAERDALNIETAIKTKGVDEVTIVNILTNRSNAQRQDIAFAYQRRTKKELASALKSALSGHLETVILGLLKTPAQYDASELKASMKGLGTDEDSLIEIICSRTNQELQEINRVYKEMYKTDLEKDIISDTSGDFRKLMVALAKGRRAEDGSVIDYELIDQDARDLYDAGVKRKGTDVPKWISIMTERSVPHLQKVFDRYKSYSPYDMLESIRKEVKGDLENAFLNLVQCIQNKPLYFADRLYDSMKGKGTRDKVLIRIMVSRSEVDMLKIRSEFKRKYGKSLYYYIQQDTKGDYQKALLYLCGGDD
glycosylated human annexin A2-6×His expressed in Pichia pastoris, sequence (chain, as listed by the source): as the sequence (chain, as listed by the source N62A) above, with A62N counted along it
non-N-glycosylated human annexin A2-6×His (N62A) group #1 expressed in Pichia pastoris, sequence (chain, as listed by the source N62A): as the sequence (chain, as listed by the source N62A) above

B1: tissue plasminogen activator (protein)
chain: SYQVICRDEKTQMIYQQHQSWLRPVLRSNRVEYCWCNSGRAQCHSVPVKSCSEPRCFNGGTCQQALYFSDFVCQCPEGFAGKCCEIDTRATCYEDQGISYRGTWSTAESGAECTNWNSSALAQKPYSGRRPDAIRLGLGNHNYCRNPDRDSKPWCYVFKAGKYSSEFCSTPACSEGNSDCYFGNGSAYRGTHSLTESGASCLPWNSMILIGKVYTAQNPSAQALGLGKHNYCRNPDGDAKPWCHVLKNRRLTWEYCDVPSCSTCGLRQYSQPQFRIKGGLFADIASHPWQAAIFAKHRRSPGERFLCGGILISSCWILSAAHCFQERFPPHHLTVILGRTYRVVPGEEEQKFEVEKYIVHKEFDDDTYDNDIALLQLKSDSSRCAQESSVVRTVCLPPADLQLPDWTECELSGYGKHEALSPFYSERLKEAHVRLYPSSRCTSQHLLNRTVTDNMLCAGDTRSGGPQANLHDACQGDSGGPLVCLNDGRMTLVGIISWGLGCGQKDVPGVYTKVTNYLDWIRDNMRP
tPA-mediated plasmin-generation (fluorogenic plasmin substrate D-Val-Leu-Lys-AMC, with N-terminal lysine plasminogen) [1]: comparable to the E. coli expressed human annexin A2 (positive control, labeled as t1+bac-rA2)
tPA-mediated plasmin-generation (fluorogenic plasmin substrate D-Val-Leu-Lys-AMC, with N-terminal lysine plasminogen) [2]: did not significantly enhance tPA-mediated plasmin-generation
tPA-mediated plasmin-generation (fluorogenic plasmin substrate D-Val-Leu-Lys-AMC, with N-terminal lysine plasminogen) [3]: restored the enhancer function completely
tPA-mediated plasmin-generation (fluorogenic plasmin substrate D-Val-Leu-Lys-AMC, with N-terminal lysine plasminogen) [4]: The enhancer function was partially (about 50%) restored in group #2

From US20150105322
